The chains are these.
B1: Ac-YIYGSFK (41) (peptide)
peptide: Ac-YIYGSFK
B2: Ac-CIYKF(NO2)Y (62) (peptide)
peptide: Ac-CIYK[Phe(NO2)]Y
B3: 3-phenylpyrazolopyrimidine-peptide conjugate 54 (peptide)
peptide: {3‑phenylpyrazolopyrimidine}-GCIYKYY
B4: 3-phenylpyrazolopyrimidine-peptide conjugate 53 (peptide)
peptide: YIYGSFK(3‑phenylpyrazolopyrimidine)
B5: 3-phenylpyrazolopyrimidine-peptide conjugate 45 (peptide)
peptide: Cys-Ile-Tyr
modifications: not fully specified (N-terminus); also: short linker to N-terminus
B6: 3-phenylpyrazolopyrimidine-peptide conjugate 43 (3-phenylpyrazolopyrimidine-YIYGSFK) (peptide)
peptide: YIYGSFK
modifications: not fully specified (N-terminus); also: short linker between the label and the N-terminus not given here
B7: Ac-CIYKY (82) (peptide)
peptide: Ac-CIYKY
B8: IYKYY (81) (peptide)
peptide: IYKYY
B9: Ac-CYKpYY (84) (peptide)
peptide: Ac-CYK[pY]Y
B10: Ac-CYKF(4-C1)Y (83) (peptide)
peptide: Ac-CYK[Phe(4-Cl)]Y
B11: Ac-CIYKF(NO2)F(NO2) (70) (peptide)
peptide: Ac-CIYK[Phe(NO2)][Phe(NO2)]
B12: Ac-CIF(NO2)KYF(NO2) (71) (peptide)
peptide: Ac-CI[Phe(NO2)]KY[Phe(NO2)]
B13: Ac-CIF(NO2)KF(NO2)Y (69) (peptide)
peptide: Ac-CI[Phe(NO2)]K[Phe(NO2)]Y
B14: Ac-CIYKF(NO2)YF (65) (peptide)
peptide: Ac-CIYK[Phe(NO2)]YF
B15: Ac-CIYKYF(NH2) (68) (peptide)
peptide: Ac-CIYKY[Phe(NH2)]
B16: Ac-CIYKF(CN)Y (78) (peptide)
peptide: Ac-CIYK[Phe(CN)]Y
B17: Ac-CIYKF(4-F)Y (74) (peptide)
peptide: Ac-CIYK[Phe(4-F)]Y
B18: CIYKF(NO2)Y (77) (peptide)
peptide: CIYK[Phe(NO2)]Y
B19: YIF(NO2)GSFK (86) (peptide)
peptide: YI[Phe(NO2)]GSFK
B20: Ac-CIF(NH2)KYY (67) (peptide)
peptide: Ac-CI[Phe(NH2)]KYY
B21: Ac-YIF(NO2)GSFK (87) (peptide)
peptide: Ac-YI[Phe(NO2)]GSFK
B22: Ac-CIF(NO2)KYY (64) (peptide)
peptide: Ac-CI[Phe(NO2)]KYY
B23: YIYGSFK (85) (peptide)
peptide: YIYGSFK
B24: Ac-CIYKF(4-NHSO2CH3)Y (80) (peptide)
peptide: Ac-CIYK[Phe(4-NHSO2CH3)]Y
B25: Ac-CIYKF(NH2)Y (63) (peptide)
peptide: Ac-CIYK[Phe(NH2)]Y
B26: Ac-CIYKF(4-C1)Y (75) (peptide)
peptide: Ac-CIYK[Phe(4-Cl)]Y
B27: Ac-CIYKF(4-Guanidine)Y (73) (peptide)
peptide: Ac-CIYK[Phe(4-guanidino)]Y
B28: Ac-CIYKF(N3)Y (79) (peptide)
peptide: Ac-CIYK[Phe(N3)]Y
B29: Ac-CIYKFY (61) (peptide)
peptide: Ac-CIYKFY
B30: Ac-CIYKF(4-I)Y (76) (peptide)
peptide: Ac-CIYK[Phe(4-I)]Y
B31: Ac-CIYKYF(NO2) (66) (peptide)
peptide: Ac-CIYKY[Phe(NO2)]
B32: ATP-βAla-pTyr-Glu-Glu-Ile-OH (1) (peptide)
peptide: {ATP}-[βAla][pY]EEI-OH
notes: also called compound 1; ATP-phosphopeptide conjugate 1

*1 amine or outer side, *2 acyl side, *3 side chain or, on linkers, in order; H or OH if unused. Where no end group is shown, it is not given here. [ ]: non-standard residue; d: D form. Phe(4-NHSO2CH3) = 4-(methylsulfonamido)phenylalanine, CS(=O)(=O)Nc1ccc(C[C@H](N[*:1])C(=O)[*:2])cc1; Phe(4-guanidino) = N=C(N)Nc1ccc(C[C@H](N)C(=O)O)cc1; pY = N[C@@H](Cc1ccc(OP(=O)(O)O)cc1)C(=O)O; Phe(4-Cl) = N[C@@H](Cc1ccc(Cl)cc1)C(=O)O; Phe(4-F) = N[C@@H](Cc1ccc(F)cc1)C(=O)O; Phe(4-I) = N[C@@H](Cc1ccc(I)cc1)C(=O)O; Phe(NH2) = aminophenylalanine; Phe(NO2) = nitrophenylalanine; Phe(CN) = cyanophenylalanine; Phe(N3) = azidophenylalanine; βAla = NCCC(=O)O

The target of one test is Src tyrosine kinase. Put plainly: cell-based or functional assay.
Consider B1, for which the “IC50, inhibition of polyE4Y phosphorylation (radioactive kinase assay)” value came out at 570 µM. As to B2, the “fold higher inhibitory potency versus 40” value is about 750 fold. For the molecule B3, the “fold reduction of inhibitory potency compared to 42” value amounted to 21 fold. Take B4: the “fold reduction of inhibitory potency compared to 43” value came out at 11 fold.

As to B5, the “fold reduction of inhibitory activity compared to 42” value was about 145 fold. B6: the “IC50, inhibition of polyE4Y phosphorylation by active Src” value was found to be 2.7 µM.

The target in the next test is Src tyrosine kinase. Nature of the test: cell-based or functional assay. This is another data set of the same source.
Take B7: the “IC50, inhibitory potency (Src kinase assay, polyE4Y phosphorylation)” value (from here on “IC50, inhibitory potency”) was over 100 µM.

As to B8, the “IC50, inhibitory potency” value is 211 µM. Regarding B9, the “IC50, inhibitory potency” value is over 100 µM. The same measure, in the same setting: the figure for B10 is 39 µM.

Take B11: the “IC50, inhibitory potency” value was found to be 5.6 µM.

As to B12, the “IC50, inhibitory potency” value stood at 3.4 µM. For the molecule B13, the “IC50, inhibitory potency” value is 1.4 µM. Same read-out and setting: the figure for B14 is 1 µM.

The next test has as its target Src tyrosine kinase. Nature of the test: cell-based or functional assay. This is another data set of the same source.
Consider B15, for which the “IC50, inhibitory potency” value was over 700 µM.

For B16, the “IC50, inhibitory potency” value was 6 µM.

Consider B17, for which the “IC50, inhibitory potency” value turned out to be 26 µM. For the molecule B18, the “IC50, inhibitory potency” value was 3 µM. On the same count and under the same terms, the figure for B19 is over 100 µM.

Turning to B20, the “IC50, inhibitory potency” value came to 760 µM. Same read-out and setting: the figure for B21 is over 100 µM; for B22 it is 1.5 µM; for B2 it is 0.53 µM. Still for that read-out and setting: the figure for B23 is over 100 µM. On to B24, for which the “IC50, inhibitory potency” value is over 100 µM. As to B25, the “IC50, inhibitory potency” value stood at 93 µM.

In the case of B26, the “IC50, inhibitory potency” value was found to be 7.3 µM. The same measure, in the same setting: the figure for B27 is over 700 µM; for B28 it is 2 µM; for B29 it is over 700 µM.

Turning to B30, the “IC50, inhibitory potency” value turned out to be 0.78 µM.

With B31, the “IC50, inhibitory potency” value was 10.8 µM.

In a further test the target is Src tyrosine kinase. Put plainly: steady-state kinetics, radioactive kinase assay; ATP-binding site of Src.
What is called Ki is a measure of affinity in units of concentration, obtained from inhibition or displacement. Turning to B32, the Ki was determined as 1.7 µM.

The values are drawn from US20110034670A1 (BOARD OF GOVERNORS FOR HIGHER EDUCATION STATE OF RHODE …, published 2011).
